Experimental findings from patent US10704030B2, “P450-BM3 variants with improved activity” (Codexis, Inc., priority 2015, dated 2020) are described below.

Type in all cases: biochemical
Data set [1] in a line: Validation of generalist properties: oxidation of diclofenac by lyophilized P450-BM3 variant, UPLC-MS. As to conditions: [Diclofenac] = 1 mM; for TON: TON = [substrate]*% conversion/[P450]; for FIOPC (F12): fold improvement over parent MCYP-1.2-F12. In a few lines: (§1)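 Lyophilized lysate of E. coli-expressed P450-BM3 variant (stock standardized to 12 μM heme) was incubated 24 h at 30 °C with 1 or 2 mM substrate, 1.0 mM NADP+, 25 mM glucose, 0.5 mg/mL glucose dehydrogenase and 5% DMSO in 100 mM potassium phosphate. Acetonitrile-quenched samples were analyzed by UPLC-MS (positive ESI).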

The nature of data set [2]: Validation of generalist properties: oxidation of loratadine by lyophilized P450-BM3 variant, UPLC-MS. The following applies: [Loratadine] = 1 mM; for TON: TON = [substrate]*% conversion/[P450]. A digest of the protocol:
as §1

Data set [3] can be described thus: Validation of generalist properties: oxidation of imatinib by lyophilized P450-BM3 variant, UPLC-MS. The following applies: [Imatinib] = 1 mM; for TON: TON = [substrate]*% conversion/[P450]; for FIOPC (F12): fold improvement over parent MCYP-1.2-F12. In a few lines: as §1
A short description of data set [4]: Validation of generalist properties: oxidation of gefitinib by lyophilized P450-BM3 variant, UPLC-MS. As to conditions: [Gefitinib] = 1 mM; for TON: TON = [substrate]*% conversion/[P450]; for FIOPC (F12): fold improvement over parent MCYP-1.2-F12. A digest of the protocol: as §1
Data set [5] can be described thus: Validation of generalist properties over the four substrates screened. The method, then:
For the production of lyophilized protein powders, LB agar plates supplemented with chloramphenicol (30 μg/mL) were streaked with E. coli containing a desired B. megaterium P450-BM3 variant in an IPTG-inducible vector. The plates were grown at 37° C. for 16 hrs before single clones were selected to inoculate a 15 mL Falcon™ tube (Fisher) containing TB media (3 mL) supplemented with chloramphenicol (30 μg/mL). The tube was shaken at 200 rpm, 30° C., and 85% humidity for 20-24 h to grow the cultures to saturation. Then, 2.5 mL of the overnight culture was used to inoculate sterile 1 L flasks containing TB medium (250 mL) supplemented with chloramphenicol (30 μg/mL), trace element solution (as described above), and 0.05 g/L ammonium iron (III) citrate. After being shaken at 250 rpm, 30° C., and 85% humidity to an OD600 of 0.8-1.2, P450 expression was induced by addition of IPTG (500 uM) and the heme precursor 5-aminolevulinic acid (5-ALA) to a final concentration of 500 uM. The cultures were grown for additional 20-24 hours and centrifuged in pre-weighed 250 mL centrifuge bottles for 20 minutes at 4000 rpm, 4° C. The supernatants were discarded, and the centrifuge bottles containing cell pellets were weighed. The pellets were resuspended in 50 mM potassium phosphate buffer with 2 mM DTT, pH 8.0 (5 mL of buffer per gram of cell pellet). The cells were lysed using a microfluidizer homogenizer, and the suspensions of cells and lysate were collected in sterile 50 mL centrifuge tubes. The samples were centrifuged for 30 minutes at 10,000 rpm, 4° C. The clarified lysate was collected into a plastic petri plate and frozen at −80° C. prior to lyophilization. The enzyme-containing lysates were lyophilized using standard methods known in the art.
Enzyme stocks (˜12 μM) were prepared by dissolving ˜20 mg of each enzyme in 100 mM potassium phosphate buffer, pH 8.0 (1 mL). The concentration of each enzyme stock solution was determined by the UV-visible absorption spectroscopy (after centrifugation to remove particulates) and diluted to standardize at 12 μM heme protein. Substrate solutions were prepared by dissolving each substrate in DMSO to reach a final concentration of 20 mM or 40 mM. Reaction mix (235 μL) followed by enzyme solution (50 μL) was added to the plates. The substrate stock solution was added to the enzyme solutions (15 μL at the two different concentrations). Each reaction contained 100 mM potassium phosphate, 1.0 mM NADP+, 25 mM glucose, 0.5 mg/mL glucose dehydrogenase, 5% DMSO and substrate at 1 or 2 mM. Loratadine, imatinib, and gefitinib (See, FIG. 1) were selected as substrates in addition to diclofenac to validate improved BM3 variants. The reactions were shaken at 450 rpm at 30° C. over 24 hours. All reactions were diluted with acetonitrile to a final concentration of 0.5 mM substrate. The plates were then centrifuged at 3,000 g for 1 hour at 20° C. The supernatant was diluted 1:1 with acetonitrile, filtered using a 0.4 micron filter, and analyzed by UPLC-MS.
For UPLC-MS analysis, the quenched and filtered reactions were transferred to 96-well HTP plates for analysis by UPLC on a Waters Acquity H-class system equipped with an autosampler. 1 uL of quenched sample was injected onto an Acquity UPLC HSS T3 column, 100 Å, (1.8 um; 2.1×100 mm). […] Column eluent was monitored by PDA (200-600 nm) prior to MS analysis in positive ESI mode (desolvation temperature 350° C., 3.25 kV spray voltage, cone voltage 25V). […]

Substitutions are numbered along the chain they refer to. Names may count otherwise.

B1: Variant 18: P450-BM3 variant of SEQ ID NO:16: K32R; C48S; Y52F; I95P; I176V; L216Y; D232H; E349K; M491A; N574T; E619D; D722S; A767T (protein)
chain: MTIKEMPQPKTFGELKNLPLLNTDKPVQALMRIADELGEIFKFEAPGSVTRFLSSQRLIKEACDESRFDKNLSQALKFARDFLGDGLVTSWTHEPNWKKAHNILLPSFSQQAMKGYHAMMVDIAVQLVQKWERLNADEHIEVSEDMTRLTLDTIGLCGFNYRFNSFYRDQPHPFIVSMVRALDEVMNKLQRANPDDPAYDENKRQCQEDIKVMNDYVDKIIADRKARGEQSHDLLTQMLNGKDPETGEPLDDGNISYQIITFLIAGHETTSGLLSFALYFLVKNPHVLQKVAEEAARVLVDPVPSYKQVKQLKYVGMVLNEALRLWPTAPAFSLYAKEDTVLGGEYPLKKGDEVMVLIPQLHRDKTIWGDDVEEFRPERFENPSAIPQHAFKPFGNGQRACIGQQFALHEATLVLGMMLKHFDFEDHTNYELDIKETLTLKPEGFVVKAKSKKIPLGGIPSPSTEQSAKKVRKKAENAHNTPLLVLYGSNAGTAEGTARDLADIAMSKGFAPQVATLDSHAGNLPREGAVLIVTASYNGHPPDNAKQFVDWLDQASADEVKGVRYSVFGCGDKTWATTYQKVPAFIDETLAAKGAENIADRGEADASDDFEGTYEEWRDHMWSDVAAYFNLDIENSEDNKSTLSLQFVDSAADMPLAKMHGAFSTNVVASKELQQPGSARSTRHLEIELPKEASYQEGDHLGVIPRNYEGIVNRVTARFGLSASQQIRLEAEEEKLAHLPLAKTVSVEELLQYVELQDPVTRTQLRTMAAKTVCPPHKVELEALLEKQAYKEQVLAKRLTMLELLEKYPACEMKFSEFIALLPSIRPRYYSISSSPRVDEKQASITVSVVSGEAWSGYGEYKGIASNYLAELQEGDTITCFISTPQSEFTLPKDPETPLIMVGPGTGVAPFRGFVQARKQLKEQGQSLGEAHLYFGCRSPHEDYLYQEELENAQSEGIITLHTAFSRMPNQPKTYVQHVMEQDGKKLIELLDQGAHFYICGDGSQMAPAVEATLMKSYADVHQVSEADARLWLQQLEEKGRYAKDVWAG
modifications: P450_BM3
notes: C48S; Y52F; I95P; I176V; L216Y; D232H; E349K; M491A; N574T; E619D; D722S; A767T
In the case of B1, the “% Conv.” value in data set [1] is listed as “++++ (15.01-20.00)”; in data set [2], “++ (5.01-10.00)”; in data set [3], “+++ (10.01-15.00)”; in data set [4] it was “++++ (15.01-20.00)”. Besides, the TON entry in data set [1] was “‡‡‡‡ (10000-50000)”; in data set [2], “‡‡‡ (5001-10000)”; in data set [3] it was “‡‡‡ (5001-10000)”; in data set [4] it was “‡‡‡‡ (10000-50000)”. The “FIOPC (F12)” value in data set [1] is “* (0.0-3.0)”; in data set [2] (fold improvement over parent MCYP-1.2-F12) it was “* (0.0-3.0)”; in data set [3], “** (3.01-5.0)”; in data set [4] it was “**** (10.01-15.00)”.

B2: Variant 19: P450-BM3 variant of SEQ ID NO:16: C48S; Y52F; I95P; Q111R; I176V; L216Y; D232H; P347T; M491A; N574T; D722S (protein)
chain: B1 chain with R32K, Q111R, P347T, K349E, D619E, T767A
modifications: P450_BM3
notes: Y52F; I95P; Q111R; I176V; L216Y; D232H; P347T; M491A; N574T; D722S
For the molecule B2, the “% Conv.” value in data set [1] is “++++ (15.01-20.00)”; in data set [2] it was “+++ (10.01-15.00)”; in data set [3], “+++ (10.01-15.00)”; in data set [4] it was “++++ (15.01-20.00)”. Moreover, the TON entry is “‡‡‡‡ (10000-50000)” in data set [1], “‡‡‡ (5001-10000)” in data set [2], “‡‡‡ (5001-10000)” in data set [3] and “‡‡‡‡ (10000-50000)” in data set [4]. Also, the “FIOPC (F12)” value in data set [1] was “* (0.0-3.0)”; in data set [3], “** (3.01-5.0)”; in data set [4], “**** (10.01-15.00)”. For the same molecule, in data set [2] (fold improvement over parent MCYP-P1.2-F02), the “FIOPC (F02)” value is recorded as “* (0.0-3.0)”.

B3: SEQ ID NO: 6: P450-BM3 parental backbone from the commercially available MCYP panel (MCYP-0343; Codexis) (protein)
chain: MTIKEMPQPKTFGELKNLPLLNTDKPVQALMKIADELGEIFKFEAPGCVTRYLSSQRLIKEACDESRFDKNLSQALKFARDFLGDGLFTSWTHEINWKKAHNILLPSFSQQAMKGYHAMMVDIAVQLVQKWERLNADEHIEVSEDMTRLTLDTIGLCGFNYRFNSFYRDQPHPFIISMVRALDEVMNKLQRANPDDPAYDENKRQCQEDIKVMNDLVDKIIADRKARGEQSDDLLTQMLNGKDPETGEPLDDGNISYQIITFLIAGHETTSGLLSFALYFLVKNPHVLQKVAEEAARVLVDPVPSYKQVKQLKYVGMVLNEALRLWPTAPAFSLYAKEDTVLGGEYPLEKGDEVMVLIPQLHRDKTIWGDDVEEFRPERFENPSAIPQHAFKPFGNGQRACIGQQFALHEATLVLGMMLKHFDFEDHTNYELDIKETLTLKPEGFVVKAKSKKIPLGGIPSPSTEQSAKKVRKKAENAHNTPLLVLYGSNMGTAEGTARDLADIAMSKGFAPQVATLDSHAGNLPREGAVLIVTASYNGHPPDNAKQFVDWLDQASADEVKGVRYSVFGCGDKNWATTYQKVPAFIDETLAAKGAENIADRGEADASDDFEGTYEEWREHMWSDVAAYFNLDIENSEDNKSTLSLQFVDSAADMPLAKMHGAFSTNVVASKELQQPGSARSTRHLEIELPKEASYQEGDHLGVIPRNYEGIVNRVTARFGLDASQQIRLEAEEEKLAHLPLAKTVSVEELLQYVELQDPVTRTQLRAMAAKTVCPPHKVELEALLEKQAYKEQVLAKRLTMLELLEKYPACEMKFSEFIALLPSIRPRYYSISSSPRVDEKQASITVSVVSGEAWSGYGEYKGIASNYLAELQEGDTITCFISTPQSEFTLPKDPETPLIMVGPGTGVAPFRGFVQARKQLKEQGQSLGEAHLYFGCRSPHEDYLYQEELENAQSEGIITLHTAFSRMPNQPKTYVQHVMEQDGKKLIELLDQGAHFYICGDGSQMAPAVEATLMKSYADVHQVSEADARLWLQQLEEKGRYAKDVWAG
modifications: P450_BM3
Turning to B3, the “% Conv.” value is recorded as “++ (5.01-10.00)” in data set [1], “+ (0-5.00)” in data set [2], “+ (0-5.00)” in data set [3] and “++ (5.01-10.00)” in data set [4]. For the same molecule, the TON entry in data set [1] is listed as “‡‡ (1001-5000)”; in data set [2] it was “‡ (0-1000)”; in data set [3], “‡‡ (1001-5000)”; in data set [4], “‡‡ (1001-5000)”. Besides, the “performance (% conversion at 1 mM substrate loading) over the substrates screened, in words” value in data set [5] is “low activity for each substrate screened”.
